Test: label from the status in PepcDB records

Sequence	protein production
MARPSGPATMRTTDGGPMRDIDWLLTDAHALRERGELDPARALYDEALEKARATGETEGLAKALRHVSDMDREAGRLEAALAAAEEAATLYGALGREHRLDLANALRLTALALEALGRPALQPWREAGDLYAELDIAAGLAEAERHLGLVVRPAQSVELEPLARLWWQGWRDAHLPIVPEALARLRTLESFTTRMAAALPQVRVLGPVGAPIGLHLIKDDELNQLYLAAEARGAGFAAVLMADAEAHLADAGVRKAWLACAIGNDRAARFYEKSGWTRARAEIVPTETPAGPFPLEVWRYEKVLTRSEPQTL	failed
MANYPKELPAQTQSRQPGIESEMNPSPVYEYEDYKGADKLKGKVALITGGDSGIGRAVSVAYAKEGADIAIVYKDEHEDAEETKKRVEQEGVKCLLIAGDVGEEEFCNEAVEKTVKELGGLDILVNNAGEQHPKESIKDITSEQLHRTFKTNFYSQFYLTKKAIDYLKPGSAIINTTSINPYVGNPTLIDYTATKGAINAFTRTMAQALVKDGIRVNAVAPGPIWTPLIPATFPEETVAQFGQDTPMGRPGQPVEHVGCYVLLASD	not failed
MEKLKEFRGIKEHLGVFREAVKDAERIGFAGVPGVCTPFAQLFAYAVRDKDNIFIPNTDFSKARKLEVTEYGVELGEISPGNVDVLVLLGGLSMPGIGSDIEDVKKLVEDALEEGGELMGLCYMDMFARAGWYELLDFDCVINADIDGYVLRG	not failed
MKIAVVGGTGLVGQGILLELSKDTTLELHSISRNGKRPNSIAGVNYHSFDLAHDTSWHSLLQTSDWVIDCVGILLPNKSKNQTYENSSIEPAKLIIDSIANFDNKFLFISANSAPFFLNNYLHAKRTVENYASRKLGNRAISVYPGLVYSKFRRSNYYPAVILDFLLKFKLFSFLRKFRPISRERFAKEIHYIIEGKNSSLTYRI	failed
MIFKKEPKRYTVEDTIPYLRLLKSGICQLDEKHFSKSIAFQDINYQLALDEDRDLIFNQFANFLNSFDPSISIEFSYVNQLGRNEEMKSAIQIPDKKDGFDDIRFEFREMLKSQIVKGNNGLKKSKYVTFTVEADNLEQATSKLERLEIDILSNLKSMGVRAESLNGEERLKILHDVLNPNKTFEFSYKDLKKRESTKTYIVPDEFNFTPSRYFKFGKFIGATSHFQILASELSDRMLSEFLDIDDNINISFHIRAIDQSEAIKMVKRKNTDIDKMKIEENKKAVRSGYDMDILPSDLITYGEDVKSLLKDLQTRDERMFVVSIVFMNFARTVQKLDNTIAQISSIANKHNCKLKRLDHSQEQGLVSMLPLGVNKIEIDRGLTSSSTAVFMPFTTEELFINSSNSLYYGLNALSHNLIMADRKKLKNPNGLILGTPGSGKSFSAKREMANAILVTDDDVIICDPEGEYGNLVRQFKGEVIKVSSKSKDYLNPLDINMNYGDGDAPLKDKANFIMSMLELVVGGSGLTAEEKSVIDRCLPKIYEKYFEHPTPDNMPILQDLYDMLKGQEEKVGKKLATEMEIYVSGSLNVFNHRSNVDLNKKLLCFDIKELGSQLKKIGMLVIQDQVWNKVSQNRGNKATRYYIDEFHLLLKDEQTASYSVEIWKRFRKWGGIPTGITQNVKDLLMSKEIENIFDNTDFVLMLNQASGDREILARKLKISLPQLRYVTNSNEGEGLLFFGNTIVPFLDKFPKDTILYQKMTTKPEEVRLEHHHHHH	not failed
MRERRYSSTSPERLAAALFDVAAESGLEGASVREVAKRAGVSIGAVQHHFSTKDEMFAFALRTLVDKLLARLSEVERGGDPARALFAAMSQLLPLDEARSREAHVMAAFAVRAATSPSLAEIRRKTLFTIRTGLSAVLIGIGTPEAETRAALLLATVDGLALDAIGSPALYPPEYLEHALDIQIGMILQGADVVPSSSIELAS	not failed
MLSYCPNIFYLIMTTLCLVIQTGCSPAQDHVHSQLHSSISVTDRDGNTVQLNQPARRIVCLFEASVDDLYMLGAGKSIIGIPAKIYTSSDLYRAYSILDRRIYEKKIATPSNWEASTNIESVVALQPDLVIVSAGQKDVIQILNRMHIPVYSVLSENLQQTRKELLDLGKLTGKSQRASELVEFIDHEIQAIQQRNHTQSDQKTIYYGWSGGRIFSTSGRDSMPNTVMTLAGAHNVVNTAIDQPNVNPEKLIEWNPDVILLWNTNPKQIYQRSELKTLTAVKQQHVFNLSPSFLFNPHTPKILLAANQLNHWVYPAPHSDQAATQDKLRILTQFYGKTAAEQLIQYANDVTKE	failed
MRAFYSTTEEISALFAKQQEQLKTMQRTLEDEDNCDNTSLDIDLNPINRSPNRANTQGDKRATSHLNFAARASSSTSGQRSTRNEVVDTSCEDADATQKHDCEIMSQEGQNTQEAEYPSSDKVAKGGFGSDIEGIGTAPTSGTDPVGTEQVNETQSPGNDYERNDHLRKSIILAGDTMQIDCETQVHESVQIEGAVLLLRNPNDRRDTQDIEGVGTIGTSDLLASEVAGSWANSTNPSVHGENETERSREDEESQTQKIKEVTIVQDSAGQIGESQTKPTSPGVLVTNKDDAERGVINEPVGITDQGKIKHGTRSDSETESCSDSDDDHEKEKHNPVSDSDTEGSDMNDDKGSLSSDPDTERSHEVDGDQKKQVDTMDEDDKAT	failed
MFSPQAYLIFNMRKPPFDNIKVRQAVMHAFNRKLVVDNIFFGLGKISTSPFVPTEMFFDKDIPAIPFDMKKARALIKESGINPGDYTIRQLSFPYGATWDRLGEYTKQALEQLGFKVNVESTDAGGWASRTGNWDFDLTTTYSYQYGDPALGVQRLYVTSNIVKGSPFANMQGYSNPESDKLWEQAAAEVDPAKRQELYNKIQALLVAEVANGFLVDME	failed
MGSRLAESSTPMKACEEVGRPSFTSEQTASSCVIDVRDNARISSASSDGTEVESVGTAIKGELDRTARPTFTAGKNKSVRFECDLDQSNSSNSSENGSSRKPEMGGKICFTVSSPNPTPLKLSDEMQTPGTIYPANMESGGRGRPRIRSQFVHSVSNIMENASLYKVYKDSHEGLDYEEQIEAETPSSETYGEKVEESSDEKLSKFEASFSPWLNQINENIAALNERTPGVGVITPGDRPIIGLVAAQWIENEQTEISPKMWDGNGIPNSTTKYKEDQKVSWHATPFEVRLEKALSEEGGQSLFPQRKLEVMMEEVEGDTDISQLHHSVQPNSVVSF	failed
MLSARTMKEVVYWSPKKVADWLLENAMPEYCEPLEHFTGQDLINLTQEDFKKPPLYRVSSDNGQRLLDMIETLKMEHHMEAHKN	not failed
SATHGQTCARPMCIPPSYADLGKAARDIFNKGFGFGLVKLDVKTKSCSGVEFSTSGSSNTDTGKVTGTLETKYKWCEYGLTFTEKWNTDNTLGTEIAIEDQICQGLKLTFDTTFSPNTGKKSGKIKSSYKRECINLGCDVDFDFAGPAIHGSAVFGYEGWLAGYQMTFDSAKSKLTRNNFAVGYRTGDFQLHTNVNDGTEFGGSIYQKVCEDLDTSVNLAWTSGTNCTRFGIAAKYQLDPTASISAKVNNSSLIGVGYTQTLRPGVKLTLSALVDGKSINAGGHKVGLALELEA	not failed
KKPKHHVLSHDIIPASKPIAEKLQIQPESPVVELKRILYNDDQPLTFEVTHYPLDLFPGIDTFIADGVSMHDILKQQYKVVPTHNTKLLNVVYAQQEESKYLDCDIGDALFEIDKTAFTSNDQPIYCSLFLMHT	not failed
MIVSKRTFRSLYIPILIEQLFILIMGQADTLMLNSYSTDAVAASGMISQILMLITFLITIIHVGTNIRIVHLKEHQPSSISQEIYHNLLFNSIVSIVFTIVIGIAFELILRLFQVPQDIFKLTYQFGMIILSVLTLTTCHMYIGTVLRVMNHASSATRITIISNVTNIILNGIVLFIIPQYVGNPVLGVAVVTAFSRLLGCTLALIALIQIFRPFKHYFKLSWKKIYQVSTLGIPTAGEQISYNFAQTFTTAFIAMLGTQVIAAKSVSTVLSGLSFSCAMAFSAASQIYLGKFISRRRYRTLKKVVIKSIWFNITQSFMIMTCVFIGFIVCGRWITHDIQTYHLIIYYLVILFGLEPIRAINNLIVDLLNVTGDVRYPVTVSVVTTWLLLLPGSYLLGIHWRLGYTGIILVSIADEALRFIIMYLRWRNDRWQARMKQIGV	failed
MNISEMDSFDVTGFVIRTTNADEVSPSTAKIGELWARFYANAAPKLNEKSKVFGLYTNYGSDFTGAFDVIACSDTLSPEILPDSVKVTVAPGKYVTFSATGEMPQVVIELWGDVWRYFGSESCPYKRAYTTDFEYYKSASEVEISIAIK	failed
MRFDGAAGLAQRMPMLGRVVQAAPLALLLGCCLILTLPASGRTLFYILCSLSLLFLPLAMFQRLEAKPKALNLLLSFALLIFIGFRAAWLWYFPAPTDAGLFPVAFAYQLSNKIWLSALPLLLFPLWSPFRERLSPAGATLALVSASALLSMITLKAWYDAHGVRVGLGSLYATGAAYLLSAIHFFALLLFHPFRLKKWQWLGLCLLIALQFMSIVATGTRAALLVYLFVLGCALLWRFGLHQSWRTYAIAALLSVATLWLSWAAVGSRVKQAQADLIAYSQGNADTSLGIRFSLWDAGVHAVREQPWGQSIQARDVLFHQLVKDGALNKAALIMRDVHLHNEWLEILSLQGLPGALSWLIFLLGFGVYGWKRGGFFRRFALFYIGFWLVFGLSDVLLLSPQIAMFGAMFAALGLYLAPIFDARDERRL	failed
MRSQALRADVLMLITAVIWGSAFVAQTSGMNHIGPFLYSGLRFALGSLCLLPLVLRKTPTDRQPEPLLNRGLLLGGVLMGLALALGINLQQVGLMFTTVTNAGFITGLYVIVVPLLGLLIGHKTGLGTWLGAVLAVVGMFLLSVSDSFHVASGDWLQLIGAFVWGGHVILVGVFAGRHDPIRLAFLQFATCAVVSLILALCLEPLRWEAIVGAGPAILYGGVVAVGIGYTLQVIAQKDAIASHAAIILSLEAVFAAIAGAWLLDESLQARGYFGCALMLSGMLVAQLWPQKPHSSTTTQRA	failed
MIKAVKKRKEGNMLKDLNTNQGLKPWRVESVFYCIVIVLIFIGAFKIAEAVFKPLAISIVLGFLVYPVYTFLARFKVPKFLIVFIIFFLLFSFSYLIFSFVYYSVTVLMKQLPYYQNQLAFIMKDVLSRYKVDSSVINDVNFSGYIYPFLTRAYNEIIGFTSSLVVVFLLLYFLLSEIHVFEMKLDKAFKKPISTRFIGALDTINNQIGKYLGIKILVSCLTGILVFIGLTLFGQDFPLVWAVLSFVFNFIPSIGSILAVFFIVITSLIQFYPNLNIVLYVFIYNTSIQMLIGNILEPKMQGKRLDISPFLLLCFLFFWGWLWGIVGLLISYPFTVIVKVIVDNVSWLKSFSVFLGGSEILSNISHISSKDKEI	failed
MAADESYPSVKERAFFQGLPFDYAVVFDNALIDRLFSRLRQERALVEDGLLARPDHRPWRLGALITEADTLDRRLSEQIRCLSGQSLPVASIALVTATTEAREAVSLWASVTCPPNVVVTPDPRAWMAEADLDLVVVFAPGALAHPGLFAALGRALQRDGADFAVWNHLLVRRRAEAPGQDITYLRCPDPTRQPVALAHMEAAGPAWAATPRLFETIKGDLGKALIGMARHPLSIALLRGKPKVVRLNEFLGACRVDSLGTPPWPRQSALVEAYGAALEDETFRLEIDPAHPTQPIRLTPRRRAHSIDIVINFRDKPELTLAAMGSIYAQTTTARVSLFLIDNQSTPAARAAIDAEAARAPAGIAVRVLSYDRPFNHSAQTNLGAAAGNGEALVFMSNDCALVDPGALDEMAAWALAPGVGTVGVRLETAEGRLACSGICALYPDHDFHPIVAEGFDQLGAGLNRETFANTFACACLARAVFRQAGPLDAIGFPIGLNDVDYCLRLRERGLRHLYLGAFLARHQALGSRPASDDGAQSAFLRQTYGHLLFDKEYMLEYDFLRQFTAAKLRQDIRSQRDKTTTVLEHHHHHH	failed

Source: a protein production outcome set (Wang et al. 2014)
